Assay results: IntAct's records for PubMed 15090617

B1: Protein SGT1 (Saccharomyces cerevisiae), Q08446 (parent)
chain: MPVEKDLKTAYKALYDEKEPLKALHLYDEILKGSPTNLTALIFKAACLEKLYFGFSDWHSDATMENAKELLDKALMTAEGRGDRSKIGLVNFRYFVHFFNIKDYELAQSYFKKAKNLGYVDDTLPLWEDRLETKLNKKNKKQKDSTNKHTIKPVESIENRGDNNSSHSPISPLKIETAPQESPKFKIDWYQSSTSVTISLFTVNLPESKEQVNIYISPNDRRTLSISYQVPKSGSEFQYNAKLSHEVDPKAVSLKIFPKKLEITLSKIDSTQWKKLEEDILTESSRLSDEGKNSDSATRLLSAETASKERLSYPSSSKKKIDWSKLDIDEEADEEAGSADSFFQKLYAGADPDTKRAMMKSFIESNGTALSTDWEDVSKGTVKTSPPEGMEPKHW

Variants of: B1
Conditions: with skp1_yeast SKP1, P52286
Chain of skp1_yeast SKP1, P52286 (P52286 whole entry): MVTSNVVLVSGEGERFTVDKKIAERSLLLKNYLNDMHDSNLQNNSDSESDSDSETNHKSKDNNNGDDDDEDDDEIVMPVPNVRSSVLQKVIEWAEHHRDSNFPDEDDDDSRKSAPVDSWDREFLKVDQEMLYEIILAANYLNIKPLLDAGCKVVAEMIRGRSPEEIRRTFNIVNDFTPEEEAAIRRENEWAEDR

| Variant | effect of a mutation on the interaction |
| --- | --- |
| T146S | decreasing interaction |
